Assays:
[1] = target: SmhB (S. marcescens MSU-97); assay: crystal structure; SmhB pore form, crystallised in 0.2 M calcium chloride, 40% MPD, 16 °C; space group C2, 6.98 Å
[2] = target: SmhC (S. marcescens MSU-97)

Work on SmhB (natural protein) yielded a stoichiometry N [1] of 10 and a percentage lysis of horse erythrocytes with equimolar SmhB and SmhC, 2 h [2] of 5%.

— article PMC7979752
